Source: IntAct's records for PubMed 20506337

B1: AH receptor-interacting protein (Homo sapiens), O00170 (parent)
chain: MADIIARLREDGIQKRVIQEGRGELPDFQDGTKATFHYRTLHSDDEGTVLDDSRARGKPMELIIGKKFKLPVWETIVCTMREGEIAQFLCDIKHVVLYPLVAKSLRNIAVGKDPLEGQRHCCGVAQMREHSSLGHADLDALQQNPQPLIFHMEMLKVESPGTYQQDPWAMTDEEKAKAVPLIHQEGNRLYREGHVKEAAAKYYDAIACLKNLQMKEQPGSPEWIQLDQQITPLLLNYCQCKLVVEEYYEVLDHCSSILNKYDDNVKAYFKRGKAHAAVWNAQEAQADFAKVLELDPALAPVVSRELRALEARIRQKDEEDKARFRGIFSH
partner: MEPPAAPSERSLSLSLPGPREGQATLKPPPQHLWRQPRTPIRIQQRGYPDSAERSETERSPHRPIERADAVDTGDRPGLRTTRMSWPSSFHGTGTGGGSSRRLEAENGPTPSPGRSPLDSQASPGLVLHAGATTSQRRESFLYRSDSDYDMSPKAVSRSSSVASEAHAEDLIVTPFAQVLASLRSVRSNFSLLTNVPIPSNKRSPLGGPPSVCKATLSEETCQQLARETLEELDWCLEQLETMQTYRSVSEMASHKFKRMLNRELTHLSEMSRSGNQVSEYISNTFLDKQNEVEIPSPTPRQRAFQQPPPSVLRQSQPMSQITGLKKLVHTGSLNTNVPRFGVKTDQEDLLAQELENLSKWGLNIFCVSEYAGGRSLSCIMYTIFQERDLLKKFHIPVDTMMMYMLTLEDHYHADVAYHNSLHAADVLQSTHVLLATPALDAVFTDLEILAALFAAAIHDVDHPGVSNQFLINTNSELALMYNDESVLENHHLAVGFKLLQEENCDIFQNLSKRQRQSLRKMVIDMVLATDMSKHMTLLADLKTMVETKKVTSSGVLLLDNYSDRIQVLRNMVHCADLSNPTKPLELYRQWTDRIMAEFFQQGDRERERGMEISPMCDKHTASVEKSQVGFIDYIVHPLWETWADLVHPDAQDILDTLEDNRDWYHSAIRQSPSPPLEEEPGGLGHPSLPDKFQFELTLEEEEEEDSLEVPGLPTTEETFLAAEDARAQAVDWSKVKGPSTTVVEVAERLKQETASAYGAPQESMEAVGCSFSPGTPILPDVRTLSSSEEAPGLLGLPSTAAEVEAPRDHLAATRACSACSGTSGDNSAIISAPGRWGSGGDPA

Variants of: B1
Conditions: with pde4a_rat Pde4a
For R16H, the “effect of a mutation on the interaction” value was “decreasing interaction strength”.
For V49M, the “effect of a mutation on the interaction” value was “with no effect”.
With R304Q the “effect of a mutation on the interaction” value was “decreasing interaction strength”.
I257V was tested, and the “effect of a mutation on the interaction” value was “decreasing interaction strength”.
For A299V, the “effect of a mutation on the interaction” value was “decreasing interaction strength”.
In the case of C238Y, the “effect of a mutation on the interaction” value is reported as “disrupting interaction strength”.
With K103R the “effect of a mutation on the interaction” value was “disrupting interaction strength”.
R271W was tested, and the “effect of a mutation on the interaction” value was “disrupting interaction strength”.
In the case of K241E, the “effect of a mutation on the interaction” value is reported as “disrupting interaction strength”.
